The target in this experiment is T1, His-Sox2 (human, UniProt P48431 1-317).
T1 construct: Sox2, human, cloned into pGEX-6p-1 or pET-28a (+) for the GST pull-down; source: E. coli BL21, purified
Kind of experiment: pull-down; GST-tagged protein on glutathione-Sepharose 4B beads incubated with His-tagged protein for 24 h at 4 °C; washed four times with 100 mM NaCl, 10 mM Tris, 50 mM NaF, 2 mM EDTA, 0.5 mM Na3VO4, 1% Nonidet P40; western blot. The conditions noted are these: both partners purified. (In general: A western blot detects proteins with antibodies after separation by electrophoresis.)

T1 sequence (P48431 whole entry): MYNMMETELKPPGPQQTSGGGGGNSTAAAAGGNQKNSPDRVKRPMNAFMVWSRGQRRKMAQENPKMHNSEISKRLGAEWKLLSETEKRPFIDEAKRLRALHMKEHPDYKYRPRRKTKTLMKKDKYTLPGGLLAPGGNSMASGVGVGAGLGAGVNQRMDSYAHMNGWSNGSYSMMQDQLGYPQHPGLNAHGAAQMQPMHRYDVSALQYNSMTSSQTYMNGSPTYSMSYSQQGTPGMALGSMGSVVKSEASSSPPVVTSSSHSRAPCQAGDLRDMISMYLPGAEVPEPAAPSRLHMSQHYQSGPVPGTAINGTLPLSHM

B1: GST-OTUD7B-ZF (811–843) (domain or fragment, human, UniProt Q6GQQ9 811-843, looked up)
chain: GHPETNNFCSCCYREELRRREREPDGELLVHRF
notes: OTUD7B, human, C-terminal zinc finger (ZF) domain, residues 811-843; also called OTUD7B ZF domain; source: E. coli BL21, purified
For the molecule B1, the binding result is given as “binds”.

The values are drawn from paper PMC6220269, “Dynamic ubiquitylation of Sox2 regulates proteostasis and governs neural progenitor cell differentiation” (Nature Communications, 2018).
